In the supplement of paper PMC10126150:
± gives the standard deviation of the averaged measurements.

Tested on: ATP
Assay: switch fluorescence ratio, 500 uM ATP over buffer (Cy3 cluster intensity, sum of 5 cycles each) (fold (ratio)); higher = stronger signal-on switching upon ATP binding; sequences stand for … in TCGTCGGCAGCGTCAGATGTGTATAAGAGACAGTTTTTTTTTTTTTTTTTTTTTTTTT…TC
Conditions: aptamer strand: ATP DNA aptamer (quencher-CACCTGGGGGAGTATTGCGGAGGAAGG + anchor), 100 nM annealed; ATP concentration: 500 uM
How it was run: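 For every switch-domain sequence, the fluorescence ratio is the mean of per-cluster values, each being summed target-cycle Cy3 intensity over summed buffer-cycle Cy3 intensity. Clusters outside 100-1000 RFU were excluded. On a modified Illumina MiSeq flow-cell, the Cy3-labelled switching-strand clusters were annealed to 100 nM quencher-labelled ATP aptamer, imaged in selection buffer and then after 15 min with 500 uM ATP at 22 °C. Five such cycles were run, with NaOH stripping and re-annealing between them.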
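Also: ATP exposure 15 min at 22 °C before imaging.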

With CGTGAACTCT the switch fluorescence ratio was 0.999 ± 0.016.

For CGTGAAGGGA, the switch fluorescence ratio was 1.01 ± 0.026.

In the case of CGTGAATAGT, the switch fluorescence ratio is reported as 1.03 ± 0.041.

In the case of CGTGAATCTG, the switch fluorescence ratio is reported as 0.9669 ± 0.006.

CGTGACGAGC gave a switch fluorescence ratio of 1.12 ± 0.062.

In the case of CGTGATCCCC, the switch fluorescence ratio is reported as 1.17 ± 0.057.

CGTGATGGAG gave a switch fluorescence ratio of 1.011 ± 0.009.

In the case of CGTGATGGTA, the switch fluorescence ratio is reported as 0.969 ± 0.0098.

CGTGATGGTT was tested, and the switch fluorescence ratio was 0.983 ± 0.014.

CGTGATTCAC showed a switch fluorescence ratio of 1.007 ± 0.0075.

In the case of CGTGATTTA, the switch fluorescence ratio is reported as 0.961 ± 0.017.

With CGTGCAGGGT the switch fluorescence ratio was 1.03 ± 0.052.

Work on CGTGCAGTTC yielded a switch fluorescence ratio of 1.15 ± 0.036.

In the case of CGTGCATATC, the switch fluorescence ratio is reported as 2.51 ± 0.17.

CGTGCCGATC showed a switch fluorescence ratio of 1.01 ± 0.013.

CGTGCGGGGT showed a switch fluorescence ratio of 0.991 ± 0.028.

Work on CGTGCGGTAT yielded a switch fluorescence ratio of 0.987 ± 0.039.

CGTGCGGTGG was tested, and the switch fluorescence ratio was 1.01 ± 0.043.

CGTGCTATTC was tested, and the switch fluorescence ratio was 1.235 ± 0.012.

CGTGCTGTTA gave a switch fluorescence ratio of 0.98019 ± 0.0002.

CGTGGCATTT gave a switch fluorescence ratio of 1.03 ± 0.07.

CGTGGCGCCG was tested, and the switch fluorescence ratio was 0.957 ± 0.054.

CGTGGCGGGA showed a switch fluorescence ratio of 0.923 ± 0.09.

In the case of CGTGGGACAG, the switch fluorescence ratio is reported as 0.976 ± 0.011.

With CGTGGGACTC the switch fluorescence ratio was 1.1401 ± 0.00046.

Sequence CGTGGGCGCC has a switch fluorescence ratio of 0.972 ± 0.026.

For CGTGGGGATG, the switch fluorescence ratio was 1.001 ± 0.0031.

CGTGGGGTTC showed a switch fluorescence ratio of 0.983 ± 0.021.

CGTGGGTTGT gave a switch fluorescence ratio of 0.9956 ± 0.0018.

CGTGGTCAAC gave a switch fluorescence ratio of 0.968 ± 0.047.

Sequence CGTGGTGGAG has a switch fluorescence ratio of 1 ± 0.045.

CGTGGTGGCT was tested, and the switch fluorescence ratio was 0.989 ± 0.12.

CGTGGTTTGT showed a switch fluorescence ratio of 0.9874 ± 0.0051.

Work on CGTGTAAGGC yielded a switch fluorescence ratio of 0.993 ± 0.025.

With CGTGTAAGTA the switch fluorescence ratio was 1.011 ± 0.0044.

In the case of CGTGTAGGGA, the switch fluorescence ratio is reported as 1.06 ± 0.029.

With CGTGTCGTGC the switch fluorescence ratio was 0.971 ± 0.062.

Sequence CGTGTCTTAA has a switch fluorescence ratio of 0.974 ± 0.021.

CGTGTGGCCA was tested, and the switch fluorescence ratio was 1 ± 0.016.

CGTGTGTATG gave a switch fluorescence ratio of 0.997 ± 0.0085.

In the case of CGTGTTTTAC, the switch fluorescence ratio is reported as 1.018 ± 0.007.

For CGTTAAGCTT, the switch fluorescence ratio was 1.03 ± 0.014.

For CGTTACGTAG, the switch fluorescence ratio was 1.05 ± 0.018.

Work on CGTTACTAAC yielded a switch fluorescence ratio of 1.12 ± 0.02.

In the case of CGTTAGGGGG, the switch fluorescence ratio is reported as 1.02 ± 0.041.

With CGTTAGGTAT the switch fluorescence ratio was 0.969 ± 0.033.

Work on CGTTAGTCGT yielded a switch fluorescence ratio of 0.981 ± 0.039.

CGTTATACGG was tested, and the switch fluorescence ratio was 1.043 ± 0.0037.

For CGTTATATTT, the switch fluorescence ratio was 1.07 ± 0.14.

CGTTATGTTC gave a switch fluorescence ratio of 0.9772 ± 0.0031.

CGTTATTCGG gave a switch fluorescence ratio of 0.965 ± 0.032.

Sequence CGTTATTTCT has a switch fluorescence ratio of 1.01 ± 0.052.

For CGTTCAAGTA, the switch fluorescence ratio was 0.973 ± 0.056.

Work on CGTTCAGGGG yielded a switch fluorescence ratio of 1.16 ± 0.024.

In the case of CGTTCAGTGG, the switch fluorescence ratio is reported as 1.031 ± 0.0083.

For CGTTCATGCG, the switch fluorescence ratio was 0.99 ± 0.032.

Sequence CGTTCATTTG has a switch fluorescence ratio of 0.993 ± 0.028.

For CGTTCCAGCC, the switch fluorescence ratio was 1.04 ± 0.041.

In the case of CGTTCCATTG, the switch fluorescence ratio is reported as 1 ± 0.012.

Work on CGTTCCGGGT yielded a switch fluorescence ratio of 1.02 ± 0.036.

With CGTTCCTCGG the switch fluorescence ratio was 1.77 ± 0.057.

With CGTTCGATGC the switch fluorescence ratio was 1.21 ± 0.042.

For CGTTCGCTTA, the switch fluorescence ratio was 1.96 ± 0.037.

For CGTTCGGCTG, the switch fluorescence ratio was 1.04 ± 0.039.

Work on CGTTCGGGGG yielded a switch fluorescence ratio of 1.01 ± 0.083.

CGTTCGGGGT gave a switch fluorescence ratio of 0.981 ± 0.012.

With CGTTCTATCT the switch fluorescence ratio was 1 ± 0.079.

CGTTCTCTGT gave a switch fluorescence ratio of 0.987 ± 0.029.

CGTTCTGAGT showed a switch fluorescence ratio of 0.955 ± 0.016.

For CGTTCTTGTT, the switch fluorescence ratio was 0.976 ± 0.032.

Sequence CGTTGAATAT has a switch fluorescence ratio of 1.01 ± 0.016.

With CGTTGACCTT the switch fluorescence ratio was 1.07 ± 0.029.

For CGTTGAGGTG, the switch fluorescence ratio was 1.02 ± 0.02.

CGTTGCAAAG showed a switch fluorescence ratio of 1.03 ± 0.022.

With CGTTGCGGGA the switch fluorescence ratio was 1.01 ± 0.045.

CGTTGCTCGG showed a switch fluorescence ratio of 1 ± 0.0083.

CGTTGCTTAG showed a switch fluorescence ratio of 0.988 ± 0.024.

Sequence CGTTGGACGG has a switch fluorescence ratio of 1.03 ± 0.026.

Sequence CGTTGGGAGC has a switch fluorescence ratio of 1 ± 0.019.

CGTTGGGAGT gave a switch fluorescence ratio of 0.988 ± 0.037.

For CGTTGGGCAG, the switch fluorescence ratio was 0.953 ± 0.099.

With CGTTGGGGG the switch fluorescence ratio was 0.963 ± 0.029.

For CGTTGGTGAG, the switch fluorescence ratio was 0.9373 ± 0.0065.

For CGTTGTTGGA, the switch fluorescence ratio was 1 ± 0.025.

In the case of CGTTTAACAT, the switch fluorescence ratio is reported as 1.01 ± 0.014.

Sequence CGTTTAAGCG has a switch fluorescence ratio of 1.01 ± 0.038.

CGTTTAAGGG showed a switch fluorescence ratio of 0.9819 ± 0.0074.

CGTTTAATCA gave a switch fluorescence ratio of 0.982 ± 0.018.

CGTTTACAAG showed a switch fluorescence ratio of 0.985 ± 0.033.

CGTTTACCTT showed a switch fluorescence ratio of 1.0086 ± 0.001.

With CGTTTAGATA the switch fluorescence ratio was 1 ± 0.042.

With CGTTTAGTTG the switch fluorescence ratio was 1.002 ± 0.009.

Work on CGTTTATTTT yielded a switch fluorescence ratio of 1.01 ± 0.03.

With CGTTTGACTT the switch fluorescence ratio was 0.9947 ± 0.0066.

CGTTTGAGGA gave a switch fluorescence ratio of 1.01 ± 0.03.

With CGTTTGAGTT the switch fluorescence ratio was 0.984 ± 0.026.

CGTTTGCAGT showed a switch fluorescence ratio of 1.02 ± 0.017.

CGTTTGCGAT gave a switch fluorescence ratio of 0.989 ± 0.05.

Sequence CGTTTGGCGT has a switch fluorescence ratio of 1.12 ± 0.2.

CGTTTGGGGA showed a switch fluorescence ratio of 0.99 ± 0.015.
